Experimental data as given in the domain aggregation screens of Martell et al. (2025).

Test: soluble fraction after stress (log2 fold change); higher = more stays soluble; pooled small domains, quantitative proteomics
Settings: stress: 75 degC
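Further: 20 min heating vs room temperature control held 20 min.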

HMNMMIIHVNGEKYSFQEPITISELILKLELDSRKIAIEYNLEILPRSLFEITSIKNGDKIEIVHFI
soluble fraction (log2): -3.43

HMNMPYGTVKWFNDAKGFGFIAPEDGSADVFVHFSAINSKGFRSLQEGQRVSYEVTTGPKGAQAAGVTPVT
soluble fraction (log2): -0.234

HMNMYTVTGRLVDQDGVPQANALVTIDSSSQQTRTSPQGFYLIKVFGTEPSTIKFLVDGYDPQIVNFTP
soluble fraction (log2): -0.466

HMNNDIDRVFAELTVLSQKKGYLVFDDIEKGTEDLSVNEVDWLTNRLLTSGVEIFDDVPDTIK
soluble fraction (log2): 0.347

HMNNDSQYLATLQRYYAEHRVLPSYARMLPLLGFASKAAVKKVLERLEVVGMLERTEDGDWAPSERFFER
soluble fraction (log2): -2.24

HMNNGYSINEIAKLMKMTLKVVRRYVASGELKTTKTNNTYSISEEAFNEFKKYIEEGGDAKHAQEVADTFK
soluble fraction (log2): -1.09

HMNNIGENIKKYRTKQGLSQEDFAKKSGVKYTTLTKIESGVIKKPSVLVMAKIAKALGVNIEELI
soluble fraction (log2): -1.64

HMNNIINEAQIKQWVEEFYLSVSPRPTRATMIALVHKKIKEETKDGEEGQTVSETLINNFYTALEKEHKRK
soluble fraction (log2): 0.216

HMNNIPFIITDERLNVIQSHLVPREVLDHPDRLRRQIDRFTEENQPKTVNYWWGPEHRHIIFYGKSK
soluble fraction (log2): 0.377

HMNNIYFSPVVEENNKGLRLDKFLAASFPEFSRSQLQRLILEGNVSNDDVVIADNSQKVRVGDSFQVIVPE
soluble fraction (log2): -0.018

HMNNKSDLLFNHLRQRIATMENGTIFPSVRQLMTEYNVSQSTVSTAIRSLKELGLLEALSRQGMVVRKE
soluble fraction (log2): -1.15

HMNNLGSKIKELRIAENLTQEKLAEELNVSFQSISRWENGISTPDISLIPAIARFFGVSTDYLFGLQD
soluble fraction (log2): -1.82

HMNNLPDFIKQLRKENNLTQEYVASEIGVSRPTYEQIEKGKRELTISEAEKLAKIFNIPLENFLQGKKGV
soluble fraction (log2): 0.122

HMNNPLPDLLKYFRKKKHLTQEQVAKQLSVSRASYASYETGRIIPGMQHIMELSRILEHDFLFAYTLAVQ
soluble fraction (log2): -2.41

HMNNPNFAIQKYVTGSDIKRVRKTLRLTQKKFAELVGVSKATMERWETKEDKITGPVVLLLKILEDHPEY
soluble fraction (log2): -1.55

HMNNQKATAVKVASGIVNLRSGPATSYETLDTVATGETLSVLAEKDGWFQVSRAGRTGWVAGWVVDVIRE
soluble fraction (log2): -0.499

HMNNSSIGERLKYQRKIKGYSQEELADRTNVTVRTIQRIEKEEVSPHLNTIKLLAIALDIEVDELVAL
soluble fraction (log2): -2.68

HMNNSVAYSTFLNDIRTNTLKDVDMTSNSETINVTKKDGTKYQTVMPMYDRDLLADLSKTDATVTGQP
soluble fraction (log2): 0.562

HMNNTIKFSVDIKNSGKRLDIFLSENVTQYTRSYLKRLIENSHVKLNNKILNSPSTKVKFQDQIIINNIE
soluble fraction (log2): -2.88

HMNNTIKFSVDTTNSGKRLDIFLAENIKQFTRSYLKKIISNNQVKLNNLVANSPSIKVKHSDLILINILE
soluble fraction (log2): -2.75

HMNNTVLSSVKSINMFLDANGGDAGQAFRIYNNTNPDSNPTESTYIFKVAEDGNTFVKGYLNLNGTTL
soluble fraction (log2): -0.267

HMNNVRIEHIDTIGTVRLHKKRGVKRVSLRIHQSGEIRVTQPLYLPFSAGVLFAKSHTEWIMKQKQK
soluble fraction (log2): 0.0763

HMNNWRRSLEREVTASLARGDRDIFDGLNRSFEAALITKALEHTGGRRIEAATLLGIGRNTLTRKIQDLGL
soluble fraction (log2): -2.11

HMNNYEGIVKSVSNSNVYIQVAGRTIGYTISPHTIIMVNGKNVPASELMPGQHVSYTNKGSKLSYININS
soluble fraction (log2): -1.17

HMNNYFPAYKGSATSIAPALKQMGVNNSYAYRSKIAAVNNITGYRGTPAQNTQMLNLLKQGRLIK
soluble fraction (log2): 0.349

HMNNYNDSVQKIINYIADNLNENLSVRKLADKMPMSVSHFNRVFQKYTGDSPYAYVMAMRIKKAKYL
soluble fraction (log2): -0.157

HMNPAIYIRKNILNLTQEKLSEYLDVTQPTIHRWEESGVIPAKHQRQIREFASEKGIYWNDSWFFSIPDE
soluble fraction (log2): -1.53

HMNPDMIAGVLKVPAAAGRLRSALFELGVVDDESYDDDGASRLTVTASQSDLERIVAQAGLVFEDVLVERR
soluble fraction (log2): -0.142

HMNPEAFIQTLKQILSTYEKNDPIYLQEIKADLVKKFRIEIPINALETYLKENGYSNIYLKR
soluble fraction (log2): -0.168

HMNPEDLSGVRKAAILLLTMDDEVTKDVMKGLDEEEIEAIGKEITNLKLIPDHVVHRVQEEFMTKVSK
soluble fraction (log2): 0.107

HMNPESRRSELIDAATKLFFSRGYTATSIRDILDAVDDRTASPSVFYYYFESKEAIYQAVLQRYTD
soluble fraction (log2): -2

HMNPETPAQQAVRKRLIVSVQFYRRLKDTPLKAVWQVAARDTLVNGYNLFLKRNIHAFNDRTLSTPSALS
soluble fraction (log2): -0.0445

HMNPFPDNTAEVLSQFKNIIVPELNTGQLSKLLRARYLVDTVGINKVEGLPFTAQELEEKIESLINSF
soluble fraction (log2): -0.428

HMNPGQIIRKLRQDQGMTLAVLAKYANLDPGNLSRIERDDLNISFNLLEKLSLILNVSPIVFFH
soluble fraction (log2): -0.119

HMNPLSELSFEERRELFLEAAVRLFEEKGYKNTSVEDIAGELGFTKKVFYYYWKNKREIVQEIHDRGMA
soluble fraction (log2): -0.594

HMNPNFIEVSHGRLRVNVPLSAYEGTTYHIKPEEAEKLKRTLASRYPWLTPNALKVFIEEAEQAMRERIQ
soluble fraction (log2): -0.403

HMNPSKEFNMSDLLKAKMVGDVSAAKRREKAGALLHIGYGNAKTFLKKLNHFSISREEWDKVIAAMEEF
soluble fraction (log2): -1.26

HMNPSVSSDERILLQKALGILSAEQKQIVMLHAVAGIKHREIAKLLDMPIATVLSKYSRAVNKLRHAMEA
soluble fraction (log2): -0.456

HMNPTTDFFKLEGIDATRILVFDQVGRQVAQFSQPAQQMDIQALPAGVYALRIENADGQVYSARIVK
soluble fraction (log2): -0.231

HMNPVVATTIILDGEIIKDNLAEANLSEEWLLEELKRQNFNDVKEVFYAEWLDGKQLFAYPYTK
soluble fraction (log2): -0.537

HMNQDIIEIGNNIQKIRKKNGISQSVLAEKIDVAGNSIYRMEGATTVMGVDKLINIADALNTSPMDILPAR
soluble fraction (log2): 0.0791

HMNQDMINFDKLSVRLKNVLIENNLKTVDSLLNYPAEEFEYLTNLGEKTLQELLTYRNELAASNNIQ
soluble fraction (log2): -0.51

HMNQGKLIEMLQEMKEIAHSQNNYLTKNEIANYLGDTVLSKEQLQAVYHYLGENHIEVEGYVYIP
soluble fraction (log2): ≥ 1.04

HMNQIATSTQAIITTLSFLNTSSIFKLPVGDTASRPTGVSPGTLRFNSQEDSAEIYKADDGTGSAGWTEVA
soluble fraction (log2): -0.296

HMNQIDEATAATITTLNFLNTNSEFKIPVGDTATRPGTPAIGMMRFNSENDKAEIYVADFDGDGNPGWINL
soluble fraction (log2): -0.0556

HMNQILDFTREVKNLPEQDKIKIVEALWSIIYSNKDADIYETNLMRRLAGLLYIDNKTMGDIKEKIKQNL
soluble fraction (log2): -0.906

HMNQNHFLDSVVEFAKDEASRAFFQKAVKKLGEGLVEEAMGEVKMREADGSVNSRAPYFIALLENWMENR
soluble fraction (log2): -0.0208

HMNQNIYVPKLEGLQIEEASSILKSKGLNIEITDSIFRKDAVPGAIIEQTPKPNSRVKTGRNIYVSIYSK
soluble fraction (log2): 0.385

HMNQSEMIGSRLKEERLQQKLTLKQLSEKVGLSIGYLSQVERGYGTLSLSALKKLSSALGLEMSTFFD
soluble fraction (log2): -2.43

HMNQTGQYENAAKRFNQLITIDSSDKRAYLQLGISNYNLGNKEKADSLFNIIRNSKDKLLIEELDNFLT
soluble fraction (log2): -0.102

HMNQYALTDREKNVLGLLVDGLSYKMIADKENISFHTVNAHVRKIYEKLHVHSLAEAVSKALKENL
soluble fraction (log2): -2.07

HMNQYRKLDGDVQNQIIYILSEYPKLPATIVYQRLLDTNTIVKKDVSLSTVNRFVQKYKDSKGIT
soluble fraction (log2): -1.19

HMNREDYIKAIFKIAEREGEASNQRIADSLGVSRASASEMVKKLIQEGFVVAEGRQLSLSAEGERIA
soluble fraction (log2): -0.185

HMNREEKKALTRRQIIDVATRLFRQHGIHNTDLKTIATEAGVSVVTFYKYFDSKEALIGTIAAEQ
soluble fraction (log2): -0.804

HMNRNHVFDSNGPDLRLRGTAQQLFEKYLQLGRDATSGGDRVMAEGYFQHAEHYFRILNAMNQAAMQH
soluble fraction (log2): -1.15

HMNRPYETLFTGLTTDEASAIVGKLEEYGAADYKIEGDTIKVPAAQEPDLKAKLLLDGYPKS
soluble fraction (log2): 0.231

HMNRTEYMAALRRALSVLPEEERASALRYYEEYFDDAGPENEEKVIADLGAPEKVAGQILADYRE
soluble fraction (log2): 0.0934

HMNSDQMKEHLDNLVDMAKKNDNTLIDTEIVNYFVGKPDIELNTDMMTKIFDYLDEHHVAVLS
soluble fraction (log2): 0.146

HMNSEFPFNGGRIVDNVPANRLQIFFDEKPDADVRTRLKQNGFRWAPNSGAWQSYRHGYTLDWARREFNA
soluble fraction (log2): -0.136

HMNSEPKTKLQEIAQERGLAAPVYETTHTGPDHDRIFSASVTVGDVVAAGEARSRKGAESEAAIAAIKALG
soluble fraction (log2): 0.195

HMNSFGWESLIDKEGIADTDLHPSGWVRIDDRRIFVVSEGDFIDKGSGVTVLSVDGNRVVVRELI
soluble fraction (log2): -1.38

HMNSHLEEGRHGLQIGDPGIVRARIESDPEGETDMPVVVIDGRNISWNEFGRMVATYTGFQFKLEM
soluble fraction (log2): -0.629

HMNSHQNELDNALTEAHTASRRLLEGTDEYLDLSSQPAYIRRLQHLLAQKYNLGSLSSGVEPNRHIRLLQ
soluble fraction (log2): -0.265

HMNSIDIENELVKIIEKNGQPMSFDDLVFKLDSLYSTRYKFAKGYIRTIILNSNRIASIGKTSTYSLYKWN
soluble fraction (log2): -3.12

HMNSKKETLLSYLYNHSTWSSRNDLSNFLNVSTRQVTNYINEINKNETIVLSSNKGYKINPKFIGKN
soluble fraction (log2): -1.61

HMNSKMTYSDLIGNIEQGNVSSVELASDGKSATVTLTDNSQKQVNIPSLDSFVTYVQDHIKAGTLSVEE
soluble fraction (log2): 0.344

HMNSKSDDELLSKTTSLLIHAAKIDENYTDKEKEIIKKTLIQLGVKESKADQIMLTAEINEE
soluble fraction (log2): ≥ 1.04

HMNSKYILLQVSDIPKTSLVLERQFGVTEYSVQDEHTLRIYDTSLDMAAVNKALVVQDIAVISSQL
soluble fraction (log2): -1.69

HMNSLFPLSLKYLREQANITQAELAQKLDVTQQAVGRWERGQTSPDYETLKRLSVLFNVSVDYLLGV
soluble fraction (log2): -1.1

HMNSNIIKTINDELSIRKGKYGPYIMYKTKKMKRPKFKSIGDNTPDEFLADKGSISEIILWIN
soluble fraction (log2): -0.527

HMNSSHRLIGLDPGLRVTGWGIVDAIGTKLVHVANGSVKSQQNAPLATRLLELENGLEEVFDNWQPDFA
soluble fraction (log2): 0.034

HMNSVLPQEVKSSLNDFFTKYAPGSIAQKLINHASFTGGKVVVTGVELTQTQADDLKKAFKDKFF
soluble fraction (log2): -0.00219

HMNSVTLEHIVYDFRVFNMLKGSGINDIDELIKAAEDGRLFKIIGSNLTYKRIKKSAAEFGVILPDKPG
soluble fraction (log2): -2.25

HMNSVYTPDPKELAKAIKIVTAAREAEQKGQGVIAVDGRMVDAPVVSQALRILELARLAGMEVSE
soluble fraction (log2): 0.0743

HMNTAIPIAIDQLRIGMYIQLGLNWMSHPFPVSSFRIASESQIEILRGLGLAEVRYVPAKSDPVP
soluble fraction (log2): -3.26

HMNTDEYEQKRGEILDAAQRLIYTKGYERMSIQDILDELKISKGAFYHYFDSKQSLLEALTARMMTE
soluble fraction (log2): -0.44
